Three molecules from paper PMC2615687 (2008) can be followed below.

Experiment [1] deals with T1, myelin oligodendroglial glycoprotein (MOG) peptide on I-Ab (mouse).
T1 peptide: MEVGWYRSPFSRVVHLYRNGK
Kind of experiment: in vivo.

In experiment [2] the target is T1, myelin oligodendroglial glycoprotein …. The experiment is described as follows: cytokine release.

B1: 1MOG23 (TCR)
alpha TRAV12D-2*02 TRAJ18*01 CDR3: CALSDRGSALGRLHF
beta TRBV19*01 TRBJ2-3*01 CDR3: CASSIADSSAETLYF
As to B1, the binding result in experiment [1] is listed as “recognises”.

B2: 1MOG9 (TCR)
alpha TRAV12D-3*01 TRAJ17*01 CDR3: CALSAANSAGNKLTF
beta TRBV13-2*01 TRBJ2-4*01 CDR3: CASGDWGGEDTLYF
On to B2, for which, in experiment [2], the binding result is on record as “recognises”.

B3: 2MOG10 (TCR)
alpha TRAV14-2*01 TRAJ21*01 CDR3: CAAASRIYNVLYF
beta TRBV5*01 TRBJ2-5*01 CDR3: CASNGLGEEDTQYF
Take B3: the binding result in experiment [2] was “recognises”.
